± gives the half width of the 95% confidence interval.

Data set [1] can be described thus: folding stability dG unfold from trypsin proteolysis; higher = more stable. A digest of the protocol: (§1)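 Sequencing followed digestion of designed mini-proteins with trypsin and chymotrypsin, each at 11 concentrations in threefold dilutions together with a no-protease condition. The mini-proteins were under 80 residues, had no cysteine, sat in a PA-tagged cDNA display construct, and were kept only if AlphaFold2 dimer inter-PAE was above 15. From the counts, Bayesian fitting gave K50, and unfolding free energy was derived against a sequence-predicted unfolded-state K50 and a shared folded-state K50, per protease or combined.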

Data set [2] can be described thus: folding stability dG unfold from chymotrypsin proteolysis; higher = more stable. A digest of the protocol: as §1
Data set [3] is described as follows: folding stability dG unfold (combined trypsin and chymotrypsin); higher = more stable. In short, it runs like this:
as §1

Regarding “SAGGMIEVTIPLEEYFDENGNPTEEAKKKIEEAKKKAEELKKKGEPAEVKVTVVEPEPYVGPDNPELVSAGG [r13_731_JUSTAS]”, the “folding stability dG unfold” value amounted to 0.278 ± 0.29 kcal/mol in data set [1], 0.569 ± 0.059 kcal/mol in data set [2] and 0.652 ± 0.28 kcal/mol in data set [3].

As to “SAGGMIIIKFKTKEQAKKAIEAAKKGKEIEITLKDGKKIKAKVVKVEEKPNYVYLVIKTEDGKEIKFSAGGS [r16_254_TrROS_Hall]”, the “folding stability dG unfold” value in data set [1] was determined as 2.16 ± 0.086 kcal/mol; in data set [2], 2.42 ± 0.038 kcal/mol; in data set [3], 2.31 ± 0.12 kcal/mol.

For “SAGGMIKIEKEEDGTLRITIVVPEKEEEAEELAEKLKEKLKELGVEEVKIEVVEKDGKVVVEIEVKKSAGGS [r8_113_TrROS_Hall]”, the “folding stability dG unfold” value in data set [1] was 2.29 ± 0.1 kcal/mol; in data set [2], 2.77 ± 0.16 kcal/mol; in data set [3], 2.53 ± 0.13 kcal/mol.

As to “SAGGMIKPGEKVKVRAVLRVGEEEEEIELELPLPENATVEDIAQAILDLIPEEPRKDAEVDIEVEPVSAGGS [r16_321_TrMRF]”, the “folding stability dG unfold” value in data set [1] is -0.468 ± 0.3 kcal/mol; in data set [2], 1.21 ± 0.094 kcal/mol; in data set [3], 0.93 ± 0.14 kcal/mol.

Turning to “SAGGMIKSEKLIKSPENETIKVETTIILDENGNPKSVKKKITVYKNGKPVKEMEISSIGNEIEIKKPSAGGS [r16_35_JUSTAS]”, the figures for the “folding stability dG unfold” value in data set [1], in data set [2] and in data set [3] were -0.308 ± 0.65 kcal/mol, 1.48 ± 0.15 kcal/mol and 1.14 ± 0.21 kcal/mol, respectively.

On to “SAGGMIPPEELAARAEAVREAAPASGEVVRTTVVLPSPGLVTRVDLVYEPGAGRITVESVSEVPPELLSAGG [r13_37_JUSTAS]”, for which the “folding stability dG unfold” value is 0.496 ± 0.027 kcal/mol in data set [1], 0.414 ± 0.032 kcal/mol in data set [2] and 0.461 ± 0.046 kcal/mol in data set [3].

Consider “SAGGMIPPEKLEEIAKKIAEETEPLGKVVKHLFVDPLEDEVVIIELTVYPGPKKIEIKEIKVYPPEELSAGG [r13_37_TrMRF]”, for which the “folding stability dG unfold” value in data set [1] is 0.0241 ± 0.084 kcal/mol; in data set [2], 0.251 ± 0.034 kcal/mol; in data set [3], 0.223 ± 0.16 kcal/mol.

Consider “SAGGMIPVSPEQYKAVEKLLKEGKDGSTVLVKTEDGRYIEIDPAGTARFFGDKPKEFPLEKIKKIIPSAGGS [r16_664_TrMRF]”, for which the “folding stability dG unfold” value in data set [1] was -0.209 ± 0.13 kcal/mol; in data set [2] it was 0.469 ± 0.14 kcal/mol; in data set [3], 0.235 ± 0.12 kcal/mol.

Turning to “SAGGMITEEEILELEKRIREAAEAGDPETVEEELERAKEALEEYKKKGNKELLKKVEEIVKRAEELIASAGG [r13_137_JUSTAS]”, the entries for the “folding stability dG unfold” value in data set [1], in data set [2] and in data set [3] were 3.8 ± 0.2 kcal/mol, 2.7 ± 0.14 kcal/mol and 3.35 ± 0.26 kcal/mol, respectively.

In the case of “SAGGMKEIEIDIPLENGEPAKIRIILLNLPDKPRAFIDIESKILPKEEIAKIITKLLPEEIKEVVIDESAGG [r13_404_TrMRF]”, the figures for the “folding stability dG unfold” value in data set [1], in data set [2] and in data set [3] were 1.03 ± 0.092 kcal/mol, 0.383 ± 0.5 kcal/mol and 0.694 ± 0.28 kcal/mol, respectively.

Consider “SAGGMKFKIVKIEVKEDKVTIEIEAETEEELEEAKKLAEELAKKLGLSKEKIEVKIELRPPPEEEEEESAGG [r13_430_TrROS_Hall]”, for which the “folding stability dG unfold” value in data set [1] was 2.43 ± 0.23 kcal/mol; in data set [2] it was 2.19 ± 0.15 kcal/mol; in data set [3], 2.55 ± 0.52 kcal/mol.

Regarding “SAGGMKIEGMTPEEVEALAKALAEAGYEVVSVTVTYDPETDTVTVTVVVRDKKTGEIKKVVTVTLPPSAGGS [r16_750_TrROS_Hall]”, the “folding stability dG unfold” value in data set [1] is 3.33 ± 0.1 kcal/mol; in data set [2], 2.69 ± 0.069 kcal/mol; in data set [3], 2.99 ± 0.072 kcal/mol.

Regarding “SAGGMKIEIEIEMTPEEVRKAIEELAKALGLKIVKVEVEVERKEDGTLRVRVTIEIEPLPEEELEPESAGGS [r8_374_TrROS_Hall]”, the figures for the “folding stability dG unfold” value in data set [1], in data set [2] and in data set [3] were 3.63 ± 0.16 kcal/mol, 4.32 ± 0.18 kcal/mol and 4 ± 0.25 kcal/mol, respectively.

For the sequence “SAGGMKIEIKIIDEETGEEITITVTMTPEEIEKLAKELEEKYPGLEIVSVEIEEKDGEIIITIKIKKKSAGG [r13_196_TrROS_Hall]”, the “folding stability dG unfold” value in data set [1] turned out to be 3.75 ± 0.25 kcal/mol; in data set [2] it was 2.71 ± 0.071 kcal/mol; in data set [3], 3.29 ± 0.21 kcal/mol.

In the case of “SAGGMKIEIVEVTPTRIRIRLENGEVLTLEEIRKLLEEEGLPEPMTVDQIAELLRKRGLKITEIEIVPSAGG [r13_610_TrROS_Hall]”, the results for the “folding stability dG unfold” value in data set [1], in data set [2] and in data set [3] were 2.97 ± 0.052 kcal/mol, 3.274 ± 0.025 kcal/mol and 3.18 ± 0.083 kcal/mol, respectively.

Turning to “SAGGMKIIPLEEAEKFIEANPDKELVIGVRPGESLYLFVVKRDPDKPFNIEVLEVIEFDPDGNGRHLPSAGG [r13_481_TrMRF]”, the results for the “folding stability dG unfold” value in data set [1], in data set [2] and in data set [3] were 1.14 ± 0.11 kcal/mol, 1.6 ± 0.1 kcal/mol and 1.3 ± 0.16 kcal/mol, respectively.

With “SAGGMKIKAEDIVSVEVTYNEETNELTVKVTVRINGKEVTLTFPEGMSEEELKRLLEELIKKGELEIESAGG [r13_225_TrROS_Hall]”, the “folding stability dG unfold” value stood at 2.19 ± 0.12 kcal/mol in data set [1], 2.96 ± 0.1 kcal/mol in data set [2] and 2.78 ± 0.11 kcal/mol in data set [3].

For the sequence “SAGGMKIKDFEPVRVDENGMYVIDLKYEDPDNGNEYQVEFMIPNPPGNMHPITFTMKSPEDALDEILKSAGG [r13_26_TrROS]”, the results for the “folding stability dG unfold” value in data set [1], in data set [2] and in data set [3] were -0.845 ± 0.27 kcal/mol, -0.325 ± 0.28 kcal/mol and -0.445 ± 0.13 kcal/mol, respectively.
